# Experimental data as given in patent publication US10239923B2, “Specific amyloid beta binding peptides and the use of same for treating and diagnosing alzheimer's dementia” (Forschungszentrum Juelich GmbH, priority 2015, dated 2019).
# Square brackets hold non-standard residues; d marks the D form.
# Target: Aβ1-42 (Homo sapiens, UniProt P05067)
# Assay: ThT test, modulation of Aβ1-42 aggregation
# Assay type: biochemical
# Conditions: 10 μM Aβ1-42, equimolar peptide, versus Aβ1-42 alone = 100%
# Text: FIG. 3: The average relative fluorescence from seven independently performed ThT experiments with standard deviation is shown. The dye Thioflavin T (ThT) binds to β-pleated sheet structures in the batch and thereupon changes its fluorescence spectrum. […] The time in which the logarithmic rise of the fluorescence signal transitioned into a stationary phase was set to 100%.
# Chain of Aβ1-42 (P05067 672-713 limits assumed): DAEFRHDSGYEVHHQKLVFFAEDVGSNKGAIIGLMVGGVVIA
row,Sequence,relative ThT fluorescence (formation of β-pleated sheet structures)
1,HNWFYWTTEPYD (H-[dH][dN][dW][dF][dY][dW][dT][dT][dE][dP][dY][dD]-NH2; SMILES C[C@H](O)[C@@H](NC(=O)[C@@H](Cc1c[nH]c2ccccc12)NC(=O)[C@@H](Cc1ccc(O)cc1)NC(=O)[C@@H](Cc1ccccc1)NC(=O)[C@@H](Cc1c[nH]c2ccccc12)NC(=O)[C@@H](CC(N)=O)NC(=O)[C@H](N)Cc1c[nH]cn1)C(=O)N[C@@H](C(=O)N[C@H](CCC(=O)O)C(=O)N1CCC[C@@H]1C(=O)N[C@H](Cc1ccc(O)cc1)C(=O)N[C@H](CC(=O)O)C(N)=O)[C@H](C)O) [Mosd4],only a very small influence

# Target: T1, Aβ1-42 monomers versus Aβ1-42 oligomers and fibrils (biotinylated, D-enantiomeric, immobilized) (Homo sapiens, UniProt P05067)
# T1 construct: biotinylated, D-enantiomeric Aβ1-42 monomers
# Assay: Monoclonal phage ELISA
# Assay type: binding
# Conditions: individual phage clones; species immobilized at 320 nM; absorption at 450 nm normalized with 6E10 control; higher = more monomer-specific
# Text: The specificity of the peptide results from the difference in % of the absorption values for the target molecule or the bait (for example A beta monomer) and the normalized absorption values for the competitors (for example A beta oligomers and fibrils) in the monoclonal phage ELISA.
# The absorption values then constitute the affinity of individual phage clones for a particular immobilized A beta species. Here, the specificity is not dependent on the strength of the affinity, but instead only on the difference of the affinities between the species. […] The terms “competitors” and “target molecule” or “bait” are defined as specified below.
# A method for normalizing the obtained values should therefore be performed. From all absorption values of the individual phage clone in the monoclonal phage ELISA, the values of the phage antibodies tested for cross-reaction can be used as background. This occurs in accordance with the previously immobilized species. The signal values of the phage antibody from the reaction trays with immobilized Aβ1-42 oligomers for this purpose can be removed from the signal values of the individual phage clone from the reaction trays with immobilized Aβ1-42 oligomers. A similar process is then carried out for Aβ1-42 monomers. In this way, a possible background signal of the phage antibody can initially be calculated from the signals of the individual phage clone. […] Only in this way is an equal interpretation of the results particularly in respect of the assessment of the specificity of the individual phage clone possible (see FIG. 2).
# The affinity of individual phage clones with respect to the target molecule and the competitors was examined by means of ELISA. For this purpose, all three species were immobilized in biotinylated form on a polystyrene surface at streptavidin bound thereon. Since, during the panning rounds, oligomers and fibrils were added at the same time as competitors, these two species were immobilized in the monoclonal phage ELISA, likewise mixed. […] The streptavidin-coated microtiter plates were pre-washed as specified by the manufacturer. […] For immobilization, 100 μl were used per reaction tray and were incubated for 15 minutes at room temperature. After having washed the entire plate(s) twice with 150 μl 1×TBS per reaction tray, a blocking step with 150 μl 1×TBS/0.1% (v/v) Tween-20/1% (w/v) BSA was performed for an hour at room temperature. Three washing steps with 150 μl 1×TBS/0.1% (v/v) Tween-20 then followed per reaction tray. The amplified individual phage clones were mixed 1:1 with 1× TBS/1% (w/v) BSA. The antibody 6E10 was diluted 1:10,000 in 1×TBS/0.1% (v/v) Tween-20. […] After washing five times with 150 μl 1×TBS/0.1% (v/v) Tween-20 per reaction tray, 200 μl 1×TBS/0.1% (v/v) Tween-20 were placed in each reaction tray, and the plate(s) incubated for one hour at room temperature. The solutions were removed and replaced as follows: In all reaction trays that had been incubated previously with individual phage clone dilutions or the batch without phages, 100 μl of a phage antibody diluted 1:5,000 in 1×TBS/0.1% (v/v) Tween-20 were now added. The enzyme horseradish peroxidase (HRP) was coupled to this antibody and later served for the conversion of a substrate (TMB). […] At the same time, 100 μl of a second antibody diluted 1:1,000 in 1×TBS/0.1% (v/v) Tween-20 were now added to all reaction trays that had been previously incubated with the dilution of the 6E10 antibody, said second antibody being able to identify and bind to the 6E10 antibody originating from mice. This antibody is also HRP-coupled and thus allows a quantification of the binding of the first antibody to the immobilized target molecules or the plastics surface of the reaction tray. After one hour of incubation at room temperature, the plate(s) was/were washed 10 times with 150 μl 1×TBS/0.1% (v/v) Tween-20 per reaction tray. The signal was detected by adding the substrate 3,3′,5,5′-tetramethylbenzidine (TMB). […]
# T1 sequence (P05067 672-713): as the sequence (P05067 672-713 limits assumed) above
row,Sequence,Difference in signal strength between Aβ1-42 monomers (100%) and Aβ1-42 oligomers and fibrils [%]
1,HNWFYWTTEPYD (H-[dH][dN][dW][dF][dY][dW][dT][dT][dE][dP][dY][dD]-NH2; SMILES C[C@H](O)[C@@H](NC(=O)[C@@H](Cc1c[nH]c2ccccc12)NC(=O)[C@@H](Cc1ccc(O)cc1)NC(=O)[C@@H](Cc1ccccc1)NC(=O)[C@@H](Cc1c[nH]c2ccccc12)NC(=O)[C@@H](CC(N)=O)NC(=O)[C@H](N)Cc1c[nH]cn1)C(=O)N[C@@H](C(=O)N[C@H](CCC(=O)O)C(=O)N1CCC[C@@H]1C(=O)N[C@H](Cc1ccc(O)cc1)C(=O)N[C@H](CC(=O)O)C(N)=O)[C@H](C)O) [Mosd4],69.154
2,FSWSMVMPWPTA (H-[dF][dS][dW][dS][dM][dV][dM][dP][dW][dP][dT][dA]-NH2; SMILES CSCC[C@@H](NC(=O)[C@@H](CO)NC(=O)[C@@H](Cc1c[nH]c2ccccc12)NC(=O)[C@@H](CO)NC(=O)[C@H](N)Cc1ccccc1)C(=O)N[C@@H](C(=O)N[C@H](CCSC)C(=O)N1CCC[C@@H]1C(=O)N[C@H](Cc1c[nH]c2ccccc12)C(=O)N1CCC[C@@H]1C(=O)N[C@@H](C(=O)N[C@H](C)C(N)=O)[C@H](C)O)C(C)C) [Mosd21],46.030
3,HNWSWEWWYNPN (H-[dH][dN][dW][dS][dW][dE][dW][dW][dY][dN][dP][dN]-NH2; SMILES NC(=O)C[C@@H](NC(=O)[C@H]1CCCN1C(=O)[C@@H](CC(N)=O)NC(=O)[C@@H](Cc1ccc(O)cc1)NC(=O)[C@@H](Cc1c[nH]c2ccccc12)NC(=O)[C@@H](Cc1c[nH]c2ccccc12)NC(=O)[C@@H](CCC(=O)O)NC(=O)[C@@H](Cc1c[nH]c2ccccc12)NC(=O)[C@@H](CO)NC(=O)[C@@H](Cc1c[nH]c2ccccc12)NC(=O)[C@@H](CC(N)=O)NC(=O)[C@H](N)Cc1c[nH]cn1)C(N)=O) [Mosd5],62.729
4,LSMNITTVHRWH (H-[dL][dS][dM][dN][dI][dT][dT][dV][dH][dR][dW][dH]-NH2; SMILES CC[C@@H](C)[C@@H](NC(=O)[C@@H](CC(N)=O)NC(=O)[C@@H](CCSC)NC(=O)[C@@H](CO)NC(=O)[C@H](N)CC(C)C)C(=O)N[C@@H](C(=O)N[C@@H](C(=O)N[C@@H](C(=O)N[C@H](Cc1c[nH]cn1)C(=O)N[C@H](CCCNC(=N)N)C(=O)N[C@H](Cc1c[nH]c2ccccc12)C(=O)N[C@H](Cc1c[nH]cn1)C(N)=O)C(C)C)[C@H](C)O)[C@H](C)O) [Mosd11],57.671
5,STLHFYTAFLNK (H-[dS][dT][dL][dH][dF][dY][dT][dA][dF][dL][dN][dK]-NH2; SMILES CC(C)C[C@@H](NC(=O)[C@@H](Cc1ccccc1)NC(=O)[C@@H](C)NC(=O)[C@H](NC(=O)[C@@H](Cc1ccc(O)cc1)NC(=O)[C@@H](Cc1ccccc1)NC(=O)[C@@H](Cc1c[nH]cn1)NC(=O)[C@@H](CC(C)C)NC(=O)[C@H](NC(=O)[C@H](N)CO)[C@H](C)O)[C@H](C)O)C(=O)N[C@H](CC(N)=O)C(=O)N[C@H](CCCCN)C(N)=O) [Mosd6],67.981
